# Assay results published in article PMC10130750, “The motor domain of the kinesin Kip2 promotes microtubule polymerization at microtubule tips” (The Journal of Cell Biology, 2023).
# Substitutions are numbered along the chain they refer to.
# B1: coiled-coil domain of Bik1 (Bik1-CC, residues 182–396) (domain or fragment, S. cerevisiae, UniProt P11709 182-396, looked up)
# chain: DNGHMNDLNSSEVTIELREAQLTIEKLQRKQLHYKRLLDDQRMVLEEVQPTFDRYEATIQEREKEIDHLKQQLELERRQQAKQKQFFDAENEQLLAVVSQLHEEIKENEERNLSHNQPTGANEDVELLKKQLEQLRNIEDQFELHKTKWAKEREQLKMHNDSLSKEYQNLSKELFLTKPQDSSSEEVASLTKKLEEANEKIKQLEQAQAQTAVES
# notes: Bik1 coiled-coil domain, S. cerevisiae CLIP-170 ortholog, residues 182–396; Dimer by SEC-MALS (51 kD); source: recombinantly expressed and purified (E. coli BL21 (DE3), IMAC, SEC)
# B2: Kip2-NMD-ΔT (truncated non-motor domain of Kip2, residues 504–645) (domain or fragment, S. cerevisiae, UniProt P28743 504-645, looked up)
# chain: SNGNNDGDKDRTIELLRRQLEEQRRMISELKNRSNIGEPLTKSSNESTYKDIKATGNDGDPNLALMRAENRVLKYKLENCEKLLDKDVVDLQDSEIMEIVEMLPFEVGTLLETKFQGLESQIRQYRKYTQKLEDKIMALEKS
# notes: Kip2 non-motor domain lacking the C-terminal tail, S. cerevisiae, residues 504–645; Dimer by SEC-MALS (34 kD); also called Kip2-NMD-∆T; source: E. coli BL21 (DE3), purified (IMAC, SEC); not shown: His6, N-terminal, cleaved
# B3: Kip2 non-motor domain (Kip2-NMD, residues 504–706) (domain or fragment, S. cerevisiae, UniProt P28743 504-706, looked up)
# chain: SNGNNDGDKDRTIELLRRQLEEQRRMISELKNRSNIGEPLTKSSNESTYKDIKATGNDGDPNLALMRAENRVLKYKLENCEKLLDKDVVDLQDSEIMEIVEMLPFEVGTLLETKFQGLESQIRQYRKYTQKLEDKIMALEKSGHTAMSLTGCDGTEVIELQKMLERKDKMIEALQSAKRLRDRALKPLINTQQSPHPVVDNDK
# notes: Kip2 non-motor domain (coiled coil and C-terminal tail), S. cerevisiae, residues 504–706; Dimer by SEC-MALS (45 kD); PreScission site between His tag and protein; also called NMD-Kip2; source: E. coli BL21 (DE3), purified (IMAC, SEC); not shown: His6, N-terminal, cleaved
# B4: Kip2 motor domain (Kip2-MD, residues 100–503) (domain or fragment, S. cerevisiae, UniProt P28743 100-503, looked up)
# chain: TGSITVTIRPKPRSVGTSRDHVGLKSPRYSQPRSNSHHGSNTFVRDPWFITNDKTIVHEEIGEFKFDHVFASHCTNLEVYERTSKPMIDKLLMGFNATIFAYGMTGSGKTFTMSGNEQELGLIPLSVSYLFTNIMEQSMNGDKKFDVIISYLEIYNERIYDLLESGLEESGSRISTPSRLYMSKSNSNGLGVELKIRDDSQYGVKVIGLTERRCESSEELLRWIAVGDKSRKIGETDYNARSSRSHAIVLIRLTSTNVKNGTSRSSTLSLCDLAGSERATGQQERRKEGSFINKSLLALGTVISKLSADKMNSVGSNIPSPSASGSSSSSGNATNNGTSPSNHIPYRDSKLTRLLQPALSGDSIVTTICTVDTRNDAAAETMNTLRFASRAKNVALHVSKKSII
# notes: Kip2 motor domain, S. cerevisiae, residues 100–503; Used in its apo state; The methods tell cleavage of the His tag only for Kip2-NMD and Kip2-NMD-ΔT; also called apo Kip2-MD; source: E. coli BL21 (DE3), purified (IMAC, SEC)
# B5: MBP-Kip2(71-560)-mCherry (domain or fragment, S. cerevisiae, UniProt P28743 71-560, looked up)
# chain: KSDPFLHPGRIRIRRSDSINNNSRKNDTYTGSITVTIRPKPRSVGTSRDHVGLKSPRYSQPRSNSHHGSNTFVRDPWFITNDKTIVHEEIGEFKFDHVFASHCTNLEVYERTSKPMIDKLLMGFNATIFAYGMTGSGKTFTMSGNEQELGLIPLSVSYLFTNIMEQSMNGDKKFDVIISYLEIYNERIYDLLESGLEESGSRISTPSRLYMSKSNSNGLGVELKIRDDSQYGVKVIGLTERRCESSEELLRWIAVGDKSRKIGETDYNARSSRSHAIVLIRLTSTNVKNGTSRSSTLSLCDLAGSERATGQQERRKEGSFINKSLLALGTVISKLSADKMNSVGSNIPSPSASGSSSSSGNATNNGTSPSNHIPYRDSKLTRLLQPALSGDSIVTTICTVDTRNDAAAETMNTLRFASRAKNVALHVSKKSIISNGNNDGDKDRTIELLRRQLEEQRRMISELKNRSNIGEPLTKSSNESTYKDIKATGN
# notes: Kip2 motor domain with a first helix predicted to form part of the coiled coil, S. cerevisiae, residues 71–560; Mixed monomers and dimers by SEC-MALS (185 kD; monomer calculated 125.8 kD); also called MBP-Kip2-MD-mCherry; MBP-Kip2-MD; not shown: MBP, N-terminal, kept; mCherry, C-terminal, kept
# B6: MBP-Kip2(71-560)-P1^−-mCherry (domain or fragment, S. cerevisiae, UniProt P28743 71-560, looked up)
# chain: B5 chain with K224A, R226A
# notes: Kip2 motor domain with a first helix of the coiled coil, S. cerevisiae, residues 71–560, patch 1 (Lys294, Arg296) substituted with alanines; Mixed monomers and dimers by SEC-MALS (192 kD); also called MBP-Kip2-MD-P1^−-mCherry; MBP-Kip2-MD-P1; not shown: MBP, N-terminal, kept; mCherry, C-terminal, kept
# B7: MBP-Kip2(1-560)-RFP (domain or fragment)
# chain: MIQKMSPSLRRPSTRSSSGSSNIPQSPSVRSTSSFSNLTRNSIRSTSNSGSQSISASSTRSNSPLRSVSAKSDPFLHPGRIRIRRSDSINNNSRKNDTYTGSITVTIRPKPRSVGTSRDHVGLKSPRYSQPRSNSHHGSNTFVRDPWFITNDKTIVHEEIGEFKFDHVFASHCTNLEVYERTSKPMIDKLLMGFNATIFAYGMTGSGKTFTMSGNEQELGLIPLSVSYLFTNIMEQSMNGDKKFDVIISYLEIYNERIYDLLESGLEESGSRISTPSRLYMSKSNSNGLGVELKIRDDSQYGVKVIGLTERRCESSEELLRWIAVGDKSRKIGETDYNARSSRSHAIVLIRLTSTNVKNGTSRSSTLSLCDLAGSERATGQQERRKEGSFINKSLLALGTVISKLSADKMNSVGSNIPSPSASGSSSSSGNATNNGTSPSNHIPYRDSKLTRLLQPALSGDSIVTTICTVDTRNDAAAETMNTLRFASRAKNVALHVSKKSIISNGNNDGDKDRTIELLRRQLEEQRRMISELKNRSNIGEPLTKSSNESTYKDIKATGN
# B8: MBP-Kip2(1-560)-P1^−-RFP (domain or fragment)
# chain: B7 chain with K294A, R296A
# Legend:
# [1] = target: the molecule itself; assay: SEC-MALS; 25°C; 20 mM Tris-HCl pH 7.5, 150 mM NaCl, 1 mM DTT; 4–8 mg/ml of each protein applied, single proteins and mixtures (Bik1-CC, Kip2-NMD, Kip2-NMD-ΔT)
# [2] = target: B1; assay: as above; conditions: both partners purified
# [3] = target: T1, tubulin (free αβ-tubulin heterodimer) ( (bovine brain tubulin used …, UniProt Q6B856 1-445)); assay: SEC-MALS; equimolar mixture of tubulin and Kip2-MD in its apo state; 25°C; conditions: both partners purified
# [4] = target: T1, tubulin (free αβ-tubulin heterodimer); assay: SEC-MALS; 25°C; 20 mM Hepes pH 7.4, 200 mM NaCl, 1 mM DTT; 4–8 mg/ml applied; MBP-Kip2(71-560)-mCherry or its P1^− mutant alone and mixed with tubulin; conditions: both partners purified
# [5] = target: the molecule itself; assay: as above
# [6] = target: tubulin (free αβ-tubulin heterodimer) (not stated (bovine brain tubulin used for pelleting, pig brain tubulin for TIRF)) (UniProt Q6B856)
# tubulin (free αβ-tubulin heterodimer) (not stated (bovine brain tubulin used for pelleting, pig brain tubulin for TIRF)), sequence (Q6B856 whole entry, looked up, one chain of several): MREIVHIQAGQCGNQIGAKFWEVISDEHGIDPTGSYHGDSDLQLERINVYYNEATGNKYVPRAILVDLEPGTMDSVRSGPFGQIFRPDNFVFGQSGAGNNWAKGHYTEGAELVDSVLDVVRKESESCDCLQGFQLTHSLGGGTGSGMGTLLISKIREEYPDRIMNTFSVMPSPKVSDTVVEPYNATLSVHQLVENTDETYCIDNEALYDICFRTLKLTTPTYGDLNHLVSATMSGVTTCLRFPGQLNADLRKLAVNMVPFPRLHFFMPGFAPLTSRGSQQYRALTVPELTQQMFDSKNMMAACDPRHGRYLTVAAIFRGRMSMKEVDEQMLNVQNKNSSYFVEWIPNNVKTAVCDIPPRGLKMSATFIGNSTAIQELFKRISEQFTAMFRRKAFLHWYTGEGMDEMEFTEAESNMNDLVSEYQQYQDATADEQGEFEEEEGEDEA
binder,measurement,setting,value
B1,stoichiometry N,[1],2
B2,stoichiometry N,[1],2
B3,stoichiometry N,[1],2
same,stoichiometry N,[2],1 Kip2-NMD dimer per Bik1-CC dimer
B4,stoichiometry N,[3],1
B5,stoichiometry N,[4],1 MBP-Kip2-MD-mCherry dimer per tubulin dimer
same,stoichiometry N,[5],2
B6,stoichiometry N,[5],2
B7,"average speed of microtubule growth in dynamic microtubule assay (porcine tubulin), 2 nM Kip2-WT, fold increase over no addition",[6],> 13 fold
same,"frequency of catastrophe in dynamic microtubule assay (porcine tubulin), 2 nM Kip2-WT, fold reduction against no addition",[6],19 fold
same,"length of freshly polymerized microtubules in dynamic microtubule assay (7 µM porcine tubulin, ATP), 2 nM Kip2-WT, fold over no addition",[6],5 fold
B8,"average growth speed of microtubules in dynamic microtubule assay (porcine tubulin), 2, 4 and 8 nM Kip2-P1^− (no speed-up at 2 nM), fold over no addition",[6],2.9 fold
same,"effect on catastrophe frequency in dynamic microtubule assay (porcine tubulin), 2 nM Kip2-P1^−, against the wild-type protein",[6],10 fold
